Test results as given in patent EP4772193A1 (Teijin Pharma Limited, dated 2026).
Like-named read-outs stand apart in the source and are kept apart here.

T1: recombinant human soluble gpNMB (recombinant human gpNMB-FLAG-His) (human, UniProt Q14956 23-498)
T1 sequence: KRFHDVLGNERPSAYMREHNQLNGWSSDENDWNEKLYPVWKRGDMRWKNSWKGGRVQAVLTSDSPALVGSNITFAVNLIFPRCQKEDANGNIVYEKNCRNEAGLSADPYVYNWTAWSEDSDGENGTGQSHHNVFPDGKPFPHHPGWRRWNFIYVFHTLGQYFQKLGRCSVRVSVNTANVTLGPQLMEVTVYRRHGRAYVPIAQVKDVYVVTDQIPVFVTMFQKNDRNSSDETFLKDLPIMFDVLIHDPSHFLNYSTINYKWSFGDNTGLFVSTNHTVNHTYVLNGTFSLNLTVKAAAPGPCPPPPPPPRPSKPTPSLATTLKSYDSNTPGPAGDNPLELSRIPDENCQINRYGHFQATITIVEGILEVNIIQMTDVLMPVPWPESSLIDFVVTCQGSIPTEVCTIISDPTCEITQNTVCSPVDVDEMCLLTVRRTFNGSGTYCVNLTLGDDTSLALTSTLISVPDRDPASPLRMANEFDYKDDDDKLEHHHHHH


Legend:
[1] = target: T1, recombinant human soluble gpNMB …; experiment: antigen ELISA, vs hGPN06-1_H1L1
[2] = target: T1, recombinant human soluble gpNMB …; experiment: antigen ELISA
[3] = target: T1, recombinant human soluble gpNMB …; experiment: antigen ELISA, vs hGPN06-1_H1L1; remark: listed apart in the source
[4] = target: T1, recombinant human soluble gpNMB …; experiment: antigen ELISA; remark: listed apart in the source

Relative binding activity [1]	EC50 [2] [nM]	Relative binding activity [3]	EC50 [4] [nM]	Binder
0.04	29.4	–	–	hGPN06-1_H1L1 VH N59A (antibody, V domains shown) VH: QVQLVQSGAEVKKPGASVKVSCKASGYTFTDNWMGWVKQRPGQGLEWIGAIDPSDSFTAYNQNFKGRVTMTVDTSISTAYMELSRLRSDDSAVYFCTRSGYYGSPKLGGDYWGQGTLVTVSS VL: EIVLTQSPSSLSASVGDRVTITCSASSSISYMHWYQQKSGTAPKLLIYSTSNLASGVPSRFSGSGSGTDFTFTISSLQPEDAATYYCHQWNSYPCTFGGGTKLEIK
0.85	0.801	–	–	hGPN06-1_H1L1 VH P53A (antibody, V domains shown) VH: QVQLVQSGAEVKKPGASVKVSCKASGYTFTDNWMGWVKQRPGQGLEWIGAIDASDSFTNYNQNFKGRVTMTVDTSISTAYMELSRLRSDDSAVYFCTRSGYYGSPKLGGDYWGQGTLVTVSS VL: EIVLTQSPSSLSASVGDRVTITCSASSSISYMHWYQQKSGTAPKLLIYSTSNLASGVPSRFSGSGSGTDFTFTISSLQPEDAATYYCHQWNSYPCTFGGGTKLEIK
1.14	0.429	–	–	hGPN06-1_H1L1 VH S56A (antibody, V domains shown) VH: QVQLVQSGAEVKKPGASVKVSCKASGYTFTDNWMGWVKQRPGQGLEWIGAIDPSDAFTNYNQNFKGRVTMTVDTSISTAYMELSRLRSDDSAVYFCTRSGYYGSPKLGGDYWGQGTLVTVSS VL: EIVLTQSPSSLSASVGDRVTITCSASSSISYMHWYQQKSGTAPKLLIYSTSNLASGVPSRFSGSGSGTDFTFTISSLQPEDAATYYCHQWNSYPCTFGGGTKLEIK
0.04	128	–	–	hGPN06-1_H1L1 VH Y60A (antibody, V domains shown) VH: QVQLVQSGAEVKKPGASVKVSCKASGYTFTDNWMGWVKQRPGQGLEWIGAIDPSDSFTNANQNFKGRVTMTVDTSISTAYMELSRLRSDDSAVYFCTRSGYYGSPKLGGDYWGQGTLVTVSS VL: EIVLTQSPSSLSASVGDRVTITCSASSSISYMHWYQQKSGTAPKLLIYSTSNLASGVPSRFSGSGSGTDFTFTISSLQPEDAATYYCHQWNSYPCTFGGGTKLEIK
1.23	2.02	–	–	hGPN06-1_H1L1 VH T30A (antibody, V domains shown) VH: QVQLVQSGAEVKKPGASVKVSCKASGYTFADNWMGWVKQRPGQGLEWIGAIDPSDSFTNYNQNFKGRVTMTVDTSISTAYMELSRLRSDDSAVYFCTRSGYYGSPKLGGDYWGQGTLVTVSS VL: EIVLTQSPSSLSASVGDRVTITCSASSSISYMHWYQQKSGTAPKLLIYSTSNLASGVPSRFSGSGSGTDFTFTISSLQPEDAATYYCHQWNSYPCTFGGGTKLEIK
1.07	0.439	–	–	hGPN06-1_H1L1 VH N63A (antibody, V domains shown) VH: QVQLVQSGAEVKKPGASVKVSCKASGYTFTDNWMGWVKQRPGQGLEWIGAIDPSDSFTNYNQAFKGRVTMTVDTSISTAYMELSRLRSDDSAVYFCTRSGYYGSPKLGGDYWGQGTLVTVSS VL: EIVLTQSPSSLSASVGDRVTITCSASSSISYMHWYQQKSGTAPKLLIYSTSNLASGVPSRFSGSGSGTDFTFTISSLQPEDAATYYCHQWNSYPCTFGGGTKLEIK
0.04	26.1	–	–	hGPN06-1_H1L1 VH N61A (antibody, V domains shown) VH: QVQLVQSGAEVKKPGASVKVSCKASGYTFTDNWMGWVKQRPGQGLEWIGAIDPSDSFTNYAQNFKGRVTMTVDTSISTAYMELSRLRSDDSAVYFCTRSGYYGSPKLGGDYWGQGTLVTVSS VL: EIVLTQSPSSLSASVGDRVTITCSASSSISYMHWYQQKSGTAPKLLIYSTSNLASGVPSRFSGSGSGTDFTFTISSLQPEDAATYYCHQWNSYPCTFGGGTKLEIK
0.04	28	–	–	hGPN06-1_H1L1 VH T58A (antibody, V domains shown) VH: QVQLVQSGAEVKKPGASVKVSCKASGYTFTDNWMGWVKQRPGQGLEWIGAIDPSDSFANYNQNFKGRVTMTVDTSISTAYMELSRLRSDDSAVYFCTRSGYYGSPKLGGDYWGQGTLVTVSS VL: EIVLTQSPSSLSASVGDRVTITCSASSSISYMHWYQQKSGTAPKLLIYSTSNLASGVPSRFSGSGSGTDFTFTISSLQPEDAATYYCHQWNSYPCTFGGGTKLEIK
0.02	69.9	–	–	hGPN06-1_H1L1 VH Y27A (antibody, V domains shown) VH: QVQLVQSGAEVKKPGASVKVSCKASGATFTDNWMGWVKQRPGQGLEWIGAIDPSDSFTNYNQNFKGRVTMTVDTSISTAYMELSRLRSDDSAVYFCTRSGYYGSPKLGGDYWGQGTLVTVSS VL: EIVLTQSPSSLSASVGDRVTITCSASSSISYMHWYQQKSGTAPKLLIYSTSNLASGVPSRFSGSGSGTDFTFTISSLQPEDAATYYCHQWNSYPCTFGGGTKLEIK
–	–	0.28	42.9	hGPN06-1_H1L1 VL H33A (antibody, V domains shown) VH: QVQLVQSGAEVKKPGASVKVSCKASGYTFTDNWMGWVKQRPGQGLEWIGAIDPSDSFTNYNQNFKGRVTMTVDTSISTAYMELSRLRSDDSAVYFCTRSGYYGSPKLGGDYWGQGTLVTVSS VL: EIVLTQSPSSLSASVGDRVTITCSASSSISYMAWYQQKSGTAPKLLIYSTSNLASGVPSRFSGSGSGTDFTFTISSLQPEDAATYYCHQWNSYPCTFGGGTKLEIK
–	–	0.45	3.15	hGPN06-1_H1L1 VL C95A (antibody, V domains shown) VH: QVQLVQSGAEVKKPGASVKVSCKASGYTFTDNWMGWVKQRPGQGLEWIGAIDPSDSFTNYNQNFKGRVTMTVDTSISTAYMELSRLRSDDSAVYFCTRSGYYGSPKLGGDYWGQGTLVTVSS VL: EIVLTQSPSSLSASVGDRVTITCSASSSISYMHWYQQKSGTAPKLLIYSTSNLASGVPSRFSGSGSGTDFTFTISSLQPEDAATYYCHQWNSYPATFGGGTKLEIK
1.49	1.98	–	–	hGPN06-1_H1L1 VH T28A (antibody, V domains shown) VH: QVQLVQSGAEVKKPGASVKVSCKASGYAFTDNWMGWVKQRPGQGLEWIGAIDPSDSFTNYNQNFKGRVTMTVDTSISTAYMELSRLRSDDSAVYFCTRSGYYGSPKLGGDYWGQGTLVTVSS VL: EIVLTQSPSSLSASVGDRVTITCSASSSISYMHWYQQKSGTAPKLLIYSTSNLASGVPSRFSGSGSGTDFTFTISSLQPEDAATYYCHQWNSYPCTFGGGTKLEIK
0.06	28.1	–	–	hGPN06-1_H1L1 VH W33A (antibody, V domains shown) VH: QVQLVQSGAEVKKPGASVKVSCKASGYTFTDNAMGWVKQRPGQGLEWIGAIDPSDSFTNYNQNFKGRVTMTVDTSISTAYMELSRLRSDDSAVYFCTRSGYYGSPKLGGDYWGQGTLVTVSS VL: EIVLTQSPSSLSASVGDRVTITCSASSSISYMHWYQQKSGTAPKLLIYSTSNLASGVPSRFSGSGSGTDFTFTISSLQPEDAATYYCHQWNSYPCTFGGGTKLEIK
1.14	0.406	–	–	hGPN06-1_H1L1 VH Q62A (antibody, V domains shown) VH: QVQLVQSGAEVKKPGASVKVSCKASGYTFTDNWMGWVKQRPGQGLEWIGAIDPSDSFTNYNANFKGRVTMTVDTSISTAYMELSRLRSDDSAVYFCTRSGYYGSPKLGGDYWGQGTLVTVSS VL: EIVLTQSPSSLSASVGDRVTITCSASSSISYMHWYQQKSGTAPKLLIYSTSNLASGVPSRFSGSGSGTDFTFTISSLQPEDAATYYCHQWNSYPCTFGGGTKLEIK
0.92	0.652	–	–	hGPN06-1_H1L1 VH S54A (antibody, V domains shown) VH: QVQLVQSGAEVKKPGASVKVSCKASGYTFTDNWMGWVKQRPGQGLEWIGAIDPADSFTNYNQNFKGRVTMTVDTSISTAYMELSRLRSDDSAVYFCTRSGYYGSPKLGGDYWGQGTLVTVSS VL: EIVLTQSPSSLSASVGDRVTITCSASSSISYMHWYQQKSGTAPKLLIYSTSNLASGVPSRFSGSGSGTDFTFTISSLQPEDAATYYCHQWNSYPCTFGGGTKLEIK
